# Test results reported in PMC6650551, “Identification of Dephospho-Coenzyme A (Dephospho-CoA) Kinase in Thermococcus kodakarensis and Elucidation of the Entire CoA Biosynthesis Pathway in Archaea” (mBio, 2019).
# Key:
# [1] = substrate: CC(C)(COP(=O)(O)OP(=O)(O)OC[C@H]1O[C@@H](n2cnc3c(N)ncnc32)[C@H](O)[C@@H]1O)[C@@H](O)C(=O)NCCC(=O)NCCS; assay: purified protein; type: biochemical, Thermococcus kodakarensis; conditions: 5 mM GTP varied dephospho-CoA, 5 mM MgCl2, 300 mM KCl, 50 mM Bicine pH 8.0, 80 °C
# [2] = substrate: Nc1nc2c(ncn2[C@@H]2O[C@H](COP(=O)(O)OP(=O)(O)OP(=O)(O)O)[C@@H](O)[C@H]2O)c(=O)[nH]1; assay: purified protein; type: biochemical, Thermococcus kodakarensis; conditions: 1 mM dephospho-CoA, varied GTP, 5 mM MgCl2, 300 mM KCl, 50 mM Bicine pH 8.0, 80 °C
protein,measurement,setting,value
"TK1697 protein (Tk-DPCK) (Thermococcus kodakarensis KOD1) (protein, full-length gene in pET21a(+) (NdeI/EcoRI, own stop codon, untagged), expressed in E. coli BL21-CodonPlus(DE3)-RIL; calculated 19,657 Da) MKMFFRLTRELRDELKRPLGELVRGPIPEPYLKVRGELEKHPVVTVGDVVTENVLKIGVKPIIALYDLKTKRKEYSPEIEDTAVFLTVTNPPGTITKALLDTVRKAFGLAERGRNVHILVSGEEDLAAIPAVLYAPLGTLVLYGQPDEGVVLIKVTPECKRRCAKILASMEVVRDGD",Km,[1],0.14 ± 0.02 mM
same,Vmax,[1],17 µmol/min/mg
same,kcat,[1],5.57 s⁻¹
same,kcat/Km,[1],40400 M⁻¹ s⁻¹
same,Km,[2],0.26 ± 0.06 mM
same,Vmax,[2],20.4 µmol/min/mg
same,kcat,[2],6.68 s⁻¹
same,kcat/Km,[2],25700 M⁻¹ s⁻¹
